# Data taken from patent US20040058357.
# B1: AChE-R overexpressed in AChE-R transgenic mice (protein)
# chain: EGREDAELLVTVRGGRLRGIRLKTPGGPVSAFLGIPFAEPPMGPRRFLPPEPKQPWSGVVDATTFQSVCYQYVDTLYPGFEGTEMWNPNRELSEDCLYLNVWTPYPRPTSPTPVLVWIYGGGFYSGASSLDVYDGRFLVQAERTVLVSMNYRVGAFGFLALPGSREAPGNVGLLDQRLALQWVQENVAAFGGDPTSVTLFGESAGAASVGMHLLSPPSRGLFHRAVLQSGAPNGPWATVGMGEARRRATQLAHLVGCPPGGTGGNDTELVACLRTRPAQVLVNHEWHVLPQESVFRFSFVPVVDGDFLSDTPEALINAGDFHGLQVLVGVVKDEGSYFLVYGAPGFSKDNESLISRAEFLAGVRVGVPQVSDLAAEAVVLHYTDWLHPEDPARLREALSDVVGDHNVVCPVAQLAGRLAAQGARVYAYVFEHRASTLSWPLWMGVPHGYEIEFIFGIPLDPSRNYTAEEKIFAQRLMRYWANFARTGDPNEPRDPKAPQWPPYTAGAQQYVSLDLRPLEVRRGLRAQACAFWNRFLPKLLSATGMQGPAGSAGRRGVGARQCNPSLLPLASE
# Target: PKCβII (mouse brain homogenates), P68404
# Sequence (P68404 other isoform, or with tags, fused parts or gaps): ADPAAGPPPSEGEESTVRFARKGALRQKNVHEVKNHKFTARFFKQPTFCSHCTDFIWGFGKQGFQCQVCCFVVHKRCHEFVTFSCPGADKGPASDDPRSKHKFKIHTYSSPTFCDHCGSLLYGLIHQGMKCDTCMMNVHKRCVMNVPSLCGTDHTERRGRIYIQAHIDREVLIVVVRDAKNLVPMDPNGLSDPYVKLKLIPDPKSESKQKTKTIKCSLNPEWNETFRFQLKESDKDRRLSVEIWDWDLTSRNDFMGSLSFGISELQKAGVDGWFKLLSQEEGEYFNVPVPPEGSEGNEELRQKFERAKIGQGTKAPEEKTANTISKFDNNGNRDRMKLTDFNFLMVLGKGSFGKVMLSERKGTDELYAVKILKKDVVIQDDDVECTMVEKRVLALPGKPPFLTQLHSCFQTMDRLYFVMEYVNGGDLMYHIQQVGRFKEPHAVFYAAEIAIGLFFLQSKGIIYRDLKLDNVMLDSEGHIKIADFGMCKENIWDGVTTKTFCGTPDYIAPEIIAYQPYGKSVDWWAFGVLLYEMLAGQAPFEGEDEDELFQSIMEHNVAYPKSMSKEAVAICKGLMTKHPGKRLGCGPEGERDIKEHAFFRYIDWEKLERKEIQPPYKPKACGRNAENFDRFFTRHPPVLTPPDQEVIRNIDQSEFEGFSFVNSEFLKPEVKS
protein,measurement,value
B1,"PKC activity in brain homogenates (PKC assay kit, Upstate Biotechnology)",Note the elevation of PKC activity in the different brain regions in the AChE-R transgenics as compered to FVB/N controls
